Measured values as given in US10781262B2, “Combination therapy of T cell activating bispecific antigen binding molecules and PD-1 axis binding antagonists” (Hoffmann-La Roche Inc., priority 2014, dated 2020).
Residue numbers refer to the chain shown, from its start. Like-named read-outs stand apart in the source and are kept apart here.

B1: 11F8: anti-FolR1 clone, generic multi-framework library (Vk_1_5/VH_1_69); Fab and IgG (antibody, V domains shown)
VH: QVQLVQSGAEVKKPGSSVKVSCKASGGTFSSYAISWVRQAPGQGLEWMGGIIPIFGTANYAQKFQGRVTITADKSTSTAYMELSSLRSEDTAVYYCARAVFYRAWYSFDYWGQGTTVTVSS
VL: DIQMTQSPSTLSASVGDRVTITCRASQSISSWLAWYQQKPGKAPKLLIYDASSLESGVPSRFSGSGSGTEFTLTISSLQPDDFATYYCQQYTSPPPTFGQGTKVEIK
B2: 5D9: anti-FolR1 clone, generic multi-framework library (Vk3_20/VH1_46); Fab and IgG (antibody, V domains shown)
VH: QVQLVQSGAEVKKPGASVKVSCKASGYTFTSYYMHWVRQAPGQGLEWMGIINPSGGSTSYAQKFQGRVTMTRDTSTSTVYMELSSLRSEDTAVYYCARSYIDMDYWGQGTLVTVSS
VL: EIVLTQSPGTLSLSPGERATLSCRASQSVSSSYLAWYQQKPGQAPRLLIYGASSRATGIPDRFSGSGSGTDFTLTISRLEPEDFAVYYCQQDNWSPTFGQGTKVEIK
B3: 6B6: anti-FolR1 clone, generic multi-framework library (Vk3_20/VH1_46); Fab and IgG (antibody, V domains shown)
VH: B2 VH with I101V
VL: B2 VL with N93I
B4: 36F2: anti-FolR1 clone, generic multi-framework library (Vk_3_20/VH_1_46); Fab and IgG (antibody, V domains shown)
VH: QVQLVQSGAEVKKPGASVKVSCKASGYTFTSYYMHWVRQAPGQGLEWMGIINPSGGSTSYAQKFQGRVTMTHDTSTSTVYMELSSLRSEDTAVYYCARSFFTGFHLDYWGQGTLVTVSS
VL: EIVLTQSPGTLSLSPGERATLSCRASQSVSSSYLAWYQQKPGQAPRLLIYGASSRATGIPDRFSGSGSGTDFTLTISRLEPEDFAVYYCQQYTNEHYYTFGQGTKVEIK

Key:
[1] = biological target: T1, human FolR1 (Homo sapiens, UniProt P15328); settings: read-out: KD huFolR1; Fab-format, generic multi-framework sub-libraries, 25° C.
Experimental: (§1) Immobilization of antigens (ligand): Recombinant antigens were diluted with PBST (10 mM phosphate, 150 mM sodium chloride pH 7.4, 0.005% Tween 20) to […] injected at 30 μl/minute in vertical orientation. Injection of analytes: For ‘one-shot kinetics’ measurements, injection direction was changed to horizontal orientation, two-fold dilution series of purified Fab (varying concentration ranges) were injected simultaneously along separate channels 1-5, with association times of 200 s, and dissociation times of 600 s. Buffer (PBST) was injected along the sixth channel to provide an “in-line” blank for referencing. Association rate constants (kon) and dissociation rate constants (koff) were calculated using a simple one-to-one Langmuir binding model in ProteOn Manager v3.1 software by simultaneously fitting the association and dissociation sensorgrams. The equilibrium dissociation constant (KD) was calculated as the ratio koff/kon.
(§2) Immobilization of antigens (ligand): Recombinant antigens were diluted with PBST (10 mM phosphate, 150 mM sodium chloride pH 7.4, 0.005% Tween 20) to 10 μg/ml, then injected at 30 μl/minute in vertical orientation. Injection of analytes: For ‘one-shot kinetics’ measurements, injection direction was changed to horizontal orientation, two-fold dilution series of purified Fab (varying concentration ranges) were injected simultaneously along separate channels 1-5, with association times of 150 or 200 s, and dissociation times of 200 or 600 s, respectively. Buffer (PBST) was injected along the sixth channel to provide an “in-line” blank for referencing. Association rate constants (kon) and dissociation rate constants (koff) were calculated using a simple one-to-one Langmuir binding model in ProteOn Manager v3.1 software by simultaneously fitting the association and dissociation sensorgrams. The equilibrium dissociation constant (KD) was calculated as the ratio koff/kon.

[2] = biological target: cynomolgus FolR1; settings: read-out: KD cyFolR1; Fab-format, generic multi-framework sub-libraries, 25° C.
Experimental: as §1, §2

[3] = biological target: T2, human FolR3 (Homo sapiens, UniProt P41439); test: SPR affinity of selected Fab clones (ProteOn XPR36); type: binding; parameters: the extracellular domain of the antigen linked to the hinge region of Fc-knob; made in house; host or cells: HEK293 EBNA; settings: Fab-format, generic multi-framework sub-libraries, 25° C.
[4] = biological target: T3, human FolR2 (Homo sapiens, UniProt P14207); test: as above; type: binding; parameters: the extracellular domain of the antigen linked to the hinge region of Fc-knob; made in house; host or cells: HEK293 EBNA; settings: Fab-format, generic multi-framework sub-libraries, 25° C.
[5] = biological target: murine FolR1 (Mus musculus, UniProt P35846); settings: IgG injected for 60 seconds at 500 nM
Experimental: (§3) Binding of FolR1 binders as IgG or in the T-cell bispecific format to different recombinant folate receptors (human FolR1, 2 and 3, murine FolR1 and cynomolgus FolR1; all as Fc fusions) was assessed by surface plasmon resonance (SPR). All SPR experiments were performed on a Biacore T200 at 25° C. with HBS-EP as running buffer (0.01 M HEPES pH 7.4, 0.15 M NaCl, 3 mM EDTA, 0.005% Surfactant P20, Biacore, Freiburg/Germany).
(§4) First the anti-FolR1 IgGs were analyzed by single injections (Table 1) to characterize their crossreactivity (to human, murine and cyno FolR1) and specificity (to human FolR1, human FolR2, human FolR3). Recombinant biotinylated monomeric Fc fusions of human, cynomolgus and murine Folate Receptor 1 (FolR1-Fc) or human Folate Receptor 2 and 3 (FolR2-Fc, FolR3-Fc) were directly coupled on a SA chip using the standard coupling instruction (Biacore, Freiburg/Germany). The immobilization level was about 300-400 RU. The IgGs were injected for 60 seconds at a concentration of 500 nM.

[6] = biological target: T1, human FolR1; settings: IgG injected for 60 seconds at 500 nM
Experimental: as §3, §4

[7] = biological target: T3, human FolR2; settings: IgG injected for 60 seconds at 500 nM
Experimental: as §3, §4

[8] = tested on: cynomolgus FolR1; settings: IgG injected for 60 seconds at 500 nM
Experimental: as §3, §4

[9] = biological target: T2, human FolR3; settings: IgG injected for 60 seconds at 500 nM
Experimental: as §3, §4

[10] = biological target: murine FolR1 (Mus musculus, UniProt P35846, C103A); settings: Fab-format, generic multi-framework sub-libraries, 25° C.
Experimental: as §1, §2

[11] = tested on: HEK cells transiently transfected with human FolR1 or human FolR2; test: Flow cytometry specificity on transfected HEK cells; type: binding; settings: IgG
Experimental: FIGS. 3A-B depict graphs summarizing specificity of FolR1 binders for FolR1. Binding of FolR1 IgGs to HEK cells transiently transfected with either FolR1 or FolR2 was analyzed by flow cytometry to identify clones which bind specifically to FolR1 and not to FolR2.
(§5) New FolR1 hinders were generated via Phage Display using either a Fab library or a common light chain library using the CD3 light chain. The identified binders were converted into a human IgG1 format and binding to FolR1 high expressing HeLa cells was addressed. As reference molecule the human FolR1 binder Mov19 was included. […] In a next step the selected clones were tested for specificity to human FolR1 by excluding binding to the closely related human FolR2. HEK cells were transiently transfected with either human FolR1 or human FolR2 to address specificity. […] Therefore these clones were excluded from further characterization. In parallel cross-reactivity of the FolR1 clones to cyno FolR1 was addressed by performing binding studies to HEK cells transiently transfected with cyno FolR1. […] Subsequently three human FolR1 specific cyno cross-reactive binders were converted into TCB format and tested for induction of T cell killing and T cell activation. […] As reference molecule Mov19 FolR1 TCB was included in all studies. These FoLR1 TCBs were then used to compare induction of internalization after binding to FolR1 on HeLa cells.

[12] = tested on: huFolR1-Fc; test: SPR epitope binning; type: binding, human
Experimental: 500 nM huFolR1-Fc was then captured for 60 s, followed by 500 nM of the different binders for 30 s. The surface was regenerated with two injections of 10 mM glycine pH 2 for 30 s each.

[13] = biological target: murine Folate Receptor 1 (FolR1-Fc) (Mus musculus, UniProt P35846); settings: bivalent binding (avidity), ligand muFolR1; 19H3 IgG with folate 2.3 μM in running buffer
Experimental: as §3
(§6) The avidity of the interaction between the anti-FolR1 IgGs or T cell bispecifics and the recombinant folate receptors was determined as described below (Table 9). Recombinant biotinylated monomeric Fc fusions of human, cynomolgus and murine Folate Receptor 1 (FolR1-Fc) were directly coupled on a SA chip using the standard coupling instruction (Biacore, Freiburg/Germany). The immobilization level was about 300-400 RU. The anti-FolR1 IgGs or T cell bispecifics were passed at a concentration range from 2.1 to 500 nM with a flow of 30 μL/minutes through the flow cells over 180 seconds. The dissociation was monitored for 600 seconds. […] The binding curves resulting from the bivalent binding of the IgGs or T cell bispecifics were approximated to a 1:1 Langmuir binding and fitted with that model (which is not correct, but gives an idea of the avidity). The apparent avidity constants for the interactions were derived from the rate constants of the fitting using the Bia Evaluation software (GE Healthcare).

[14] = tested on: cynomolgus Folate Receptor 1 (FolR1-Fc); settings: bivalent binding (avidity), ligand cyFolR1
Experimental: as §3, §6

[15] = tested on: HEK cells transiently transfected with cyno FolR1; test: Flow cytometry cross-reactivity on transfected HEK cells; type: binding, cynomolgus; settings: IgG
From the text: FIGS. 4A-B depict graphs summarizing cross-reactivity of FolR1 binders to cyFoLR1. Cross-reactivity of the FolR1 antibodies to cyno FolR1 was addressed on HEK cells transiently transfected with cyFolR1 by flow cytometry.
as §5

[16] = biological target: T4, human Folate Receptor 1 (FolR1-Fc) (Homo sapiens, UniProt P15328); test: SPR avidity to Folate Receptor 1 (bivalent binding)
T4 construct: the extracellular domain of the antigen linked to the hinge region of Fc-knob; made in house; host or cells: HEK293 EBNA
From the text: The immobilization level was about 300-400 RU. […] The dissociation was monitored for 600 seconds.

[17] = bivalent binding (avidity), ligand huFolR1

| Molecule | Kd [1] | Kd [2] | KD huFolR3 [3] | KD huFolR2 [4] | Binding to muFolR1 [5] | Binding to huFolR1 [6] | Binding to huFolR2 [7] | Binding to cyFolR1 [8] | Binding to huFolR3 [9] | KD muFolR1 [10] | also measured |
| --- | --- | --- | --- | --- | --- | --- | --- | --- | --- | --- | --- |
| B1 | 632 nM | 794 nM | no binding | no binding | + | + | + | + | + |  |  |
| B2 | 8.6 nM | 5.9 nM | no binding | no binding | − | + | + | + | + | no binding |  |
| B3 | 14.5 nM | 9.4 nM | no binding | no binding | − | + | + | + | + | no binding |  |
| B4 |  |  | no binding | no binding | + | + | − | + | − |  | specificity for human FolR1 versus human FolR2 on transfected HEK cells [11]: specifically to human FolR1 and not to human FolR2; epitope characterization on human FolR1 (in words) [12]: binds to a different epitope than Mov19 and Farletuzumab; epitope characterization on human FolR1 (in words) ([12]; listed as 36F2 IgG): Measure not possible, huFolR1 dissociates too rapidly; ka [13]: 370000 M⁻¹ s⁻¹; kd [13]: 0.000603 s⁻¹; ka [14]: 3.02e+06 M⁻¹ s⁻¹; kd [14]: 0.016 s⁻¹; binding to cyno FolR1 on transfected HEK cells [15]: bind comparably well human and cyno FoLR1; dissociation from huFolR1 (in words) [16]: dissociated rapidly from huFolR1; ka [16, 17]: 2.62e+06 M⁻¹ s⁻¹; kd [16, 17]: 0.0151 s⁻¹ |
